Target: the molecule itself
Test: crystal structure

Protein | stoichiometry N
N-terminal β-flap deletion mutant of SaTpx (NΔ15-SaTpx) (domain or fragment, UniProt Q2FXL3 16-164, looked up) QQINEGDFAPDFTVLDNDLNQVTLADYAGKKKLISVVPSIDTGVCDQQTRKFNSDASKEEGIVLTISADLPFAQKRWCASAGLDNVITLSDHRDLSFGENYGVVMEELRLLARAVFVLDADNKVVYKEIVSEGTDFPDFDAALAAYKNI | 2
Staphylococcal atypical 2-Cys peroxiredoxin / thiol peroxidase, wild type (WT-SaTpx) (enzyme, UniProt Q2FXL3 1-164, looked up) MTEITFKGGPIHLKGQQINEGDFAPDFTVLDNDLNQVTLADYAGKKKLISVVPSIDTGVCDQQTRKFNSDASKEEGIVLTISADLPFAQKRWCASAGLDNVITLSDHRDLSFGENYGVVMEELRLLARAVFVLDADNKVVYKEIVSEGTDFPDFDAALAAYKNI | 2
